Earlier results, collected in article PMC5150220.

Molecular target: sigma32 peptide 132-144 (Escherichia coli) (UniProt P0AGB3)

Chain of DnaK (P0A6Y8 2-638): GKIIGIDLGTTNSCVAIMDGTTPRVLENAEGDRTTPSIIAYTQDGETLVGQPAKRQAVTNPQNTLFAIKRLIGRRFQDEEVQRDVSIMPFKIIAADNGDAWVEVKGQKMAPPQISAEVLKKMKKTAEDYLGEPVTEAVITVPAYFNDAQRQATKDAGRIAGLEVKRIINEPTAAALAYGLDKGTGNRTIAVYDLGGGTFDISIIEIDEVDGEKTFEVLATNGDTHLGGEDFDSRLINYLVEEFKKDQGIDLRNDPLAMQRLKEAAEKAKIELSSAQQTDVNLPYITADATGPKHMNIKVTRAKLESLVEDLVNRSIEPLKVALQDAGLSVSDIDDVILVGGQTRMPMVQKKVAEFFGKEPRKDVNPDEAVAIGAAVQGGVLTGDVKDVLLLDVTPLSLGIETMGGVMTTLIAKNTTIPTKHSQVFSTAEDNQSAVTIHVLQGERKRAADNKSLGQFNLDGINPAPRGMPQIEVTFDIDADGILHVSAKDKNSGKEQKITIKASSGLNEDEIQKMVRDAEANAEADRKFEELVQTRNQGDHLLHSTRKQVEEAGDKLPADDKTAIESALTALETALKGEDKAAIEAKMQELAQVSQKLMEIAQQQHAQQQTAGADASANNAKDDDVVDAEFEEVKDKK

Kd: 78 nM
Substance: DnaK (from UniProt P0A6Y8)
